Data published in PMC8809517, “Cofactor-independent RNA editing by a synthetic S-type PPR protein”.

T1: GFP-9S library array, motif 4 ND N98C;D124T (synthetic construct, N98C;D124T)
T1 chain: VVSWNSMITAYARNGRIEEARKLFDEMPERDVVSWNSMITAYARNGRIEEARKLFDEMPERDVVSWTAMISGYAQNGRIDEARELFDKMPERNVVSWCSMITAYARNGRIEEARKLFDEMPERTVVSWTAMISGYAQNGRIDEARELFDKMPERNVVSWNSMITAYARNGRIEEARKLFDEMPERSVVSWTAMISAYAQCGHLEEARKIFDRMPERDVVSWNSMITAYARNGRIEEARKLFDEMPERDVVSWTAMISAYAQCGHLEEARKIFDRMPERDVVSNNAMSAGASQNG

T2: GFP-9S library array, motif 4 ND N98T (synthetic construct, N98T)
T2 chain: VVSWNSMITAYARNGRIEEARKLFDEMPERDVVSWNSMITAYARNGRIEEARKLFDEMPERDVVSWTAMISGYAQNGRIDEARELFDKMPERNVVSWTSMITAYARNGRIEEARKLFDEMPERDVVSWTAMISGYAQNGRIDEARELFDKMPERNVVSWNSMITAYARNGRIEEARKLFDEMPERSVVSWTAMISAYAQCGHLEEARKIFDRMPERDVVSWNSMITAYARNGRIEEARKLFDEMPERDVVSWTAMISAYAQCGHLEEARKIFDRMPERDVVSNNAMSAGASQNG

T3: GFP-9S library array, motif 4 ND N98A;D124T (synthetic construct, N98A;D124T)
T3 chain: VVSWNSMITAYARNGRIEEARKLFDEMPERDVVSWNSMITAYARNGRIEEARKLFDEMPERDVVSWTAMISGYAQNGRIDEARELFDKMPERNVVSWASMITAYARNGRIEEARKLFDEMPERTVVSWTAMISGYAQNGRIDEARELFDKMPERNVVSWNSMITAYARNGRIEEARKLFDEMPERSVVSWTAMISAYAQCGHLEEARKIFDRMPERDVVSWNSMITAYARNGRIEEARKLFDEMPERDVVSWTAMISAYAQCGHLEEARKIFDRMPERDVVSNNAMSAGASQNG

T4: GFP-9S library array, motif 4 ND N98Q;D124P (synthetic construct, N98Q;D124P)
T4 chain: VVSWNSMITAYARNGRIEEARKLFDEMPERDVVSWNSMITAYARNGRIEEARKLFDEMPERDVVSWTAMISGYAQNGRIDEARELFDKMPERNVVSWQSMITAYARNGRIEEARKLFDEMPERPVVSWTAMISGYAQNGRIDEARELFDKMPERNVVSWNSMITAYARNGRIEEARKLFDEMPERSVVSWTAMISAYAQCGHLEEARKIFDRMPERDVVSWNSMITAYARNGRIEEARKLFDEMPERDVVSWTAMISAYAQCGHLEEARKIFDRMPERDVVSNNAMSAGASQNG

T5: GFP-9S library array, motif 4 ND N98A;D124Q (synthetic construct, N98A;D124Q)
T5 chain: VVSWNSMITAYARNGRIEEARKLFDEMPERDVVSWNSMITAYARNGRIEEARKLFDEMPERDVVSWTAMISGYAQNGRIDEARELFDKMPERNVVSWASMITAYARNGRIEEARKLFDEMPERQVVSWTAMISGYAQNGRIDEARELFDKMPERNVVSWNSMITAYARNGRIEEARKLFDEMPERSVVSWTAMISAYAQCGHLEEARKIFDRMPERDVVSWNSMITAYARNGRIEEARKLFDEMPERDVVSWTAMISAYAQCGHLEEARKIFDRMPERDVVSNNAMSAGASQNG


What was measured:
Assay in all cases: high-throughput RNA pulldown from lysate on Ni-NTA beads; HRP: 50 mM Tris pH 8, 150 mM NaCl, 1 mM beta-mercaptoethanol, 50 ug/ml BSA, 3 ug/ml yeast RNA, 0.5% heparin; ITC and FP: Tris pH 8, 200 mM KCl, 5% glycerol; MST: 50 mM Tris pH 8, 200 mM NaCl, 1 mM DTT, BSA, heparin, 0.05% Tween 20
Conditions in all cases: tags: N-terminal His-eGFP
[1] = biological target: T1, GFP-9S library array, motif 4 ND …
[2] = biological target: T2, GFP-9S library array, motif 4 ND N98T
[3] = biological target: T3, GFP-9S library array, motif 4 ND …
[4] = biological target: T4, GFP-9S library array, motif 4 ND …
[5] = biological target: T5, GFP-9S library array, motif 4 ND …

Binder | Kd ([1]; label: 5' Cy5) | Kd ([2]; label: 5' Cy5) | Kd ([3]; label: 5' Cy5) | Kd ([4]; label: 5' Cy5) | Kd ([5]; label: 5' Cy5) | Kd ([1]; label: 5' IRDye 800CW) | Kd ([2]; label: 5' IRDye 800CW) | Kd ([3]; label: 5' IRDye 800CW) | Kd ([4]; label: 5' IRDye 800CW) | Kd ([5]; label: 5' IRDye 800CW)
AUUACACGUGA (ssRNA) [Cy5-rpoA] | 245 nM | 97.5 nM | 102 nM | 135 nM | 249 nM |  |  |  |  | 
AUUAGACGUGA (ssRNA) [Cy5-rpoA-G] | 85.3 nM | 5.06 nM | 107 nM | 138 nM | 174 nM |  |  |  |  | 
AUUAAACGUGA (ssRNA) [IR-rpoA-A] |  |  |  |  |  | 150 nM | 91.7 nM | 90.7 nM | 259 nM | 306 nM
AUUAUACGUGA (ssRNA) [IR-rpoA-U] |  |  |  |  |  | 155 nM | 23 nM | 68.9 nM | 219 nM | 522 nM
